In experiment [1] the target is T1, human Tie1, full length, V5-tagged (pcDNA3-Tie1-V5), in transiently transfected COS1 cells (human, UniProt P35590 25-1138).
T1 construct: it is not expressly tied to the pcDNA3-Tie1-V5 construct; also called Tie1-transfected; transfected Tie1
Description: Western blot, Tie1-V5-transfected COS1. As for the experimental part:
(§1) COS1 cells were transfected with pcDNA3-Tie1-V5 (1 μg DNA per 10 cm cell culture plate) using FUGENE 6 (Roche) according to manufacturer's instruction and incubated for 48 h before stimulation. For immunoprecipitation, Tie1 transfected cells and HMVEC cells were lysed in DOC-RIPA lysis buffer (50 mM Tris-HCl pH 8.0, 150 mM NaCl, 1% Triton-X-100, 0.1% SDS, 1% DOC, 10 mM EDTA) supplemented with aprotinin, leupeptin, PMSF and sodium vanadate. Immunoprecipitation was carried out from equal amount of cell lysates by incubating with polyclonal anti-human Tie1 antibodies (R&D), monoclonal anti-V5 antibodies (Invitrogen) or altogether 23 anti-Tie1 antibodies (1μg/ml) for 1 to 2 h followed by incubation with protein G-Sepharose (Amersham Pharmacia Biotech AB) for 1 h. The immunoprecipitates were washed twice with PBS-T and twice with PBS, followed by elution with the Laemmli buffer and separation in 8% SDS-PAGE. The blots were probed with the 23 anti-Tie1 antibodies (5 μg/ml) and subsequently anti-human Fc antibodies conjugated with HRP.
(§2) Next, to find out if the anti-Tie1 antibodies recognize Tie1 in living cells, those cells were studied by immunofluorescence staining.
In general terms: Immunoblotting shows a protein as a band on a membrane.

The target in experiment [2] is T2, endogenous human Tie1 of primary human endothelial cells (HDMEC/HDMVEC, HUVEC) and human tissues (human, UniProt P35590 25-1138).
T2 construct: also called endogenous Tie1; Tie-1 in HUVEC
The experiment can be described thus: immunofluorescence, HDMEC.

The target of experiment [3] is T3, recombinant human Tie1-Fc (Tie1 extracellular domain fused to human Fc) (human, UniProt P35590 25-759).
T3 construct: also called Tie-1 Fc Human; not shown: human Fc
T3 sequence: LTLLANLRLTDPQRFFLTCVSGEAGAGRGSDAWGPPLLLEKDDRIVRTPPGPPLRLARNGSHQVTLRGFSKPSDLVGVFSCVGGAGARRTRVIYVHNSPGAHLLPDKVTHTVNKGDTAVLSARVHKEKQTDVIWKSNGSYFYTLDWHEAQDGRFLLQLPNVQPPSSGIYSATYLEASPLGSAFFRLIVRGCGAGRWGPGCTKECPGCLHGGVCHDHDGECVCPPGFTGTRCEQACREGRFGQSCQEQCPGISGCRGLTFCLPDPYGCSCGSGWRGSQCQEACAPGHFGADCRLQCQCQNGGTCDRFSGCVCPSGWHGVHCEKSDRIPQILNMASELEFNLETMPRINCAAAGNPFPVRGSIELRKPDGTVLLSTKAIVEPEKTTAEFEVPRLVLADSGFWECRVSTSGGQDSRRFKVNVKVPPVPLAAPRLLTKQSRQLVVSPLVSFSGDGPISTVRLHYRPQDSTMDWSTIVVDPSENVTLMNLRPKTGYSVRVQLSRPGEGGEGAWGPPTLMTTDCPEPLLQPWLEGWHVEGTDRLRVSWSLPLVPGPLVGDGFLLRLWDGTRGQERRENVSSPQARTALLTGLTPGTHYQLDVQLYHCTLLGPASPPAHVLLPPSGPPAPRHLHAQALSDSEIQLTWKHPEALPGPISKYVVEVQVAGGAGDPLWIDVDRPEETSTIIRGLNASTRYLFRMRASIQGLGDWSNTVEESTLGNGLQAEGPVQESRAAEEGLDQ
The experiment can be described thus: BIAcore, human Tie-1 Fc over IgG coupled to CM5 chip, 1:1 fit. As for the experimental part:
The IgG were directly coated onto a CM5 chip. […] All flow cells were subsequently deactivated with a 7 minute pulse of 1M ethanolamine hydrochloride pH 8.5. All analysis was performed in HBS buffer. Purified recombinant human Tie-1 Fc was diluted 1/28.7 in HBS to obtain a 400 nM stock solution. Serial dilutions were made to obtain 200 nM, 100 nM, 50 nM and 25 nM Tie-1 Fc stocks. For analysis of the association phase samples were injected at 30 μl/min for 8.3 minutes using kinject program. This was followed by a 40 minutes dissociation phase. Any antigen remaining associated to the surface was stripped from the IgG surface at a flow of 50μl/min with two injections of 10 mM glycine pH 1.5 for 30 secods. All samples were run and analyzed in duplicate
(§3) Sensorgrams were analyzed using the simultaneous ka/kd fitting program with 1:1 model in the BIAEVALUATION™ software 3.1.
(Surface plasmon resonance follows binding to a sensor surface in real time, without labels.)

In experiment [4] the target is T2, endogenous human Tie1 of primary human …. Description: cell-based or functional assay.
For experiment [5], the target named is T4, recombinant mouse Tie1-Fc (mouse, UniProt Q06806 23-755, limits assumed).
T4 construct: also called Tie-1 Fc Mouse; not shown: Fc
T4 sequence (looked up): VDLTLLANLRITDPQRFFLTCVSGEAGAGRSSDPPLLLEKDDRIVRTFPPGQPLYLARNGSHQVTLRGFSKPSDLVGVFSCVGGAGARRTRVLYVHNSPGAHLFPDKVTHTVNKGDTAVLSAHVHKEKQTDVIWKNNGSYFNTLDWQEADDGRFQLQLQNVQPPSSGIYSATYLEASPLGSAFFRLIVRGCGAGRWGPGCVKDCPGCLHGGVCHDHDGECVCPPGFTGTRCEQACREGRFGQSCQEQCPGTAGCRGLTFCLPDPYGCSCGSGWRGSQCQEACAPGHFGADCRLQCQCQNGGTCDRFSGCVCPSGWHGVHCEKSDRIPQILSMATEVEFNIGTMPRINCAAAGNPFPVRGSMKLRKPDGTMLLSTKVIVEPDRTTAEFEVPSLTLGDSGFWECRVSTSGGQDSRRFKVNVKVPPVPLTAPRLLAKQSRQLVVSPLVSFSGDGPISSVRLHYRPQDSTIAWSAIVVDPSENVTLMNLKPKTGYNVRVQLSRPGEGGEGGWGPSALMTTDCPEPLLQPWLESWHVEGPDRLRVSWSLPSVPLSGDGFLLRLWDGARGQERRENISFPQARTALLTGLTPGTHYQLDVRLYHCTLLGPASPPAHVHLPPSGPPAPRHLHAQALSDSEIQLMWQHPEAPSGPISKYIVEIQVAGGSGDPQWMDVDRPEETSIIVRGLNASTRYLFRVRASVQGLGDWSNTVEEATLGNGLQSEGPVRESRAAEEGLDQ
The experiment can be described thus: BIAcore, mouse Tie-1 Fc over IgG coupled to CM5 chip, 1:1 fit. As for the experimental part:
This was then used to transiently transfect HEK293T cells using established procedures. The IgG was purified from the culture supernatant using protein A column chromatography using established procedures and the subsequent IgG was then tested for binding activity using surface plasmon resonance (BIAcore). […] The IgG were directly coated via onto a CM5 chip. […] All flow cells were subsequently deactivated with a 7 minute pulse of 1M ethanolamine hydrochloride pH8.5. All analysis was performed in HBS buffer. Purified recombinant mouse Tie-1 Fc was diluted 1/6.5 in HBS to obtain a 400 nM stock solution. Serial dilutions were made to obtain 200 nM, 100 nM, 50 nM and 25 nM Tie-1 Fc stocks. For analysis of the association phase samples were injected at 30 μl/min for 8.3 minutes using kinject program. This was followed by a 40 minutes dissociation phase. Any antigen remaining associated to the surface was stripped from the IgG surface at a flow of 50μl/min with two injections of 10 mM glycine pH1.5 for 30 seconds. All samples were run and analyzed in duplicate
as §3

Experiment [6] deals with T2, endogenous human Tie1 of primary human …. The experiment can be described thus: Western blot, HDMEC. As for the experimental part: as §1, §2

By Kd is commonly meant the free concentration of one partner at which half of the binding sites on the other are occupied at equilibrium, for simple one-to-one binding. One may read the koff as a measure of how fast the partners let go of each other. What is called kon is the second-order rate constant of association.

Positions count from the first letter of the chain named. Values joined by “and” are separate entries in the source; they are usually repeats but may differ in a detail not shown here. Equal entries are not always repeated.

B1: P-B3 IgG (anti-Tie1 isolate p-B3, human IgG1) (antibody, V domains shown)
VH: EVQLLESGGGLVQPGGSLRLSCAASGFTFSRYGMHWVRQAPGKGLEWVSVISPSGGMTYYADSVKGRFTISRDNTKNTLYLQMNSLRAEDTAVYYCARVGATGPFDIWGQGTMVTVSS
VL: DIQMTQSPATLSLSPGERATLSCRASQSVSTYLAWYQQKPGQAPRLLIYDASNRATGIPGRFSGSGSGTDFTLTISSLEAEDFAVYYCQQRSSWPITFGQG
notes: the VL entry stops within FR4
Consider B1, for which the binding result in experiment [1] and in experiment [2] was “binds” each time.

B2: E3 IgG (parental anti-Tie1 antibody E3, human IgG1) (antibody, V domains shown)
VH: EVQLLESGGGLVQPGGSLRLSCAASGFTFSMYGMVWVRQAPGKGLEWVSVISPSGGNTGYADSVKGRFTISRDNSKNTLYLQVNSLRAEDTAVYYCARAPRGYSYGYYYWGQGTLVTVSS
VL: DIQMTQSPLSLSASVGDRVTITCRASQGIGHYLAWYQQKPGKVPKLLIYTASTLQSGVPSRFSGSGSGTDFTLTINSLQPEDVATYYCQQFNSYPHTFGQGTRLDIK
notes: also called E3 IgG1; parental E3
As to B2, in experiment [3], the equilibrium dissociation constant (Kd) worked out at 0.00583 µM, the koff was found to be 3.61e-05 s⁻¹ and the on-rate constant (kon) was found to be 6190 M⁻¹ s⁻¹. In experiment [4], the “IC50 of tube formation by HUVECs” value is 10 ng/ml and 66 pM. For the same molecule, in experiment [5], the Kd was found to be 0.0149 µM, the koff amounted to 9.2e-05 s⁻¹ and the kon turned out to be 6170 M⁻¹ s⁻¹.

B3: germlined E3 IgG (light chain framework regions germlined to DPK4; heavy chain as parental) (antibody, V domains shown)
VH: B2 VH
VL: B2 VL with L9S, N76S, D105E
notes: also called germlined E3 IgG1; germlined anti Tie1 E3-IgG
For B3, in experiment [3], the equilibrium dissociation constant (Kd) was 0.00517 µM, the koff amounted to 3.67e-05 s⁻¹ and the kon worked out at 7090 M⁻¹ s⁻¹. Further, the “IC50 of tube formation by HUVECs” value in experiment [4] is 10 ng/ml and 66 pM. Besides, in experiment [5], the Kd amounted to 0.015 µM, the koff stood at 8.99e-05 s⁻¹ and the kon turned out to be 6000 M⁻¹ s⁻¹.

B4: P-G3 IgG (anti-Tie1 isolate p-G3, human IgG1) (antibody, V domains shown)
VH: EVQLLESGGGLVQPGGSLRLSCAASGFTFSHYMMVWVRQAPGKGLEWVSSIYPSGGWTYYADSVKGRFTISRDNSKNTLYLQMNSLRAEDTAVYYCARLDYGGNSAYFDYWGQGTLVTVSS
VL: QSVLTQPHSVSASPGKTVTISCTRSSGNIASNFVQWYQQRPGSVPTTVIYEDDRRPSGVPDRFSGSIDSSSNSAFLSISGLKTEDEADYYCQSHDRTTRAWVFGGGTKL
notes: lambda VL entry stops within FR4
For the molecule B4, the binding result in experiment [6] and in experiment [1] was “binds” in each case.
